Here are results for two molecules from article PMC8761896 (2021).

Experiment [1] concerns the target eOD-GT6. The experiment is described as follows: SPR.
Experiment [2] has as its target eOD-GT6. The experiment is described as follows: SPR. The source holds these as a separate data set. (SPR reads the build-up and loss of mass on a sensor chip optically.)

B1: germline reverted VRC01 (VRC01gl) Fab (Fab, V domains shown)
VH: not shown
VL: EIVLTQSPATLSLSPGERATLSCRASQSVSSYLAWYQQKPGQAPRLLIYDASNRATGIPARFSGSGSGTDFTLTISSLEPEDFAVYYCQQYEFFGQGTKLEIK
As to B1, binding in the experiment with eOD-GT6 [1] was characterised by a dissociation constant (Kd) of 16.2 nM. Besides, the koff (usually the first-order rate constant of dissociation) with eOD-GT6 [2] was found to be 0.00073 s⁻¹.

B2: VRC01gl Fab with comL ('VQ' insertion at 103aL and 103bL, L104VL, E105DL) (Fab, V domains shown)
VH: not shown
VL: EIVLTQSPATLSLSPGERATLSCRASQSVSSYLAWYQQKPGQAPRLLIYDASNRATGIPARFSGSGSGTDFTLTISSLEPEDFAVYYCQQYEFFGQGTKVQVDI
For the molecule B2, the equilibrium dissociation constant (Kd) (in general, the free concentration of one partner at which half of the binding sites on the other are occupied at equilibrium, for simple one-to-one binding) with eOD-GT6 [1] was 16.4 nM. In the experiment with eOD-GT6 [2], this molecule gave a koff of 0.000642 s⁻¹.
